Assay results reported in patent publication US20190352420A1 (Boehringer Ingelheim, published 2019).
Changes are numbered by the printed parent chain. Where two headings read alike, the source gives them in different places.

T1: cell-bound CD73 (human, UniProt P21589 27-549)
T1 sequence (looked up): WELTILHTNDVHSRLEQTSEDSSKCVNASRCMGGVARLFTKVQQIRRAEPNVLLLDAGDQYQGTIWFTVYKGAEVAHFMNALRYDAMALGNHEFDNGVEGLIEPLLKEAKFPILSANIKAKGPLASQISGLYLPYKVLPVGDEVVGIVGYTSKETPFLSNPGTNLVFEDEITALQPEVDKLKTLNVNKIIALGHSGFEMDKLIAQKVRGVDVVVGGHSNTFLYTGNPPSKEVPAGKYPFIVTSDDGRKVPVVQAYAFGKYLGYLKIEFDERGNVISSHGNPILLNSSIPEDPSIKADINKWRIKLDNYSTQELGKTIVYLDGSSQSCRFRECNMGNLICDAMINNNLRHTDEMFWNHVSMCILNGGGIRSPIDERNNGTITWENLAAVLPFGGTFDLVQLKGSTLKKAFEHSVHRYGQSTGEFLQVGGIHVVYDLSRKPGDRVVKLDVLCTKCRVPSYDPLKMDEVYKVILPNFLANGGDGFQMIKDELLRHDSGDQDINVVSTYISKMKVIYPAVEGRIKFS

T2: non-cell-bound CD73 (human, UniProt P21589 27-549, limits assumed)
T2 sequence (looked up): T1 sequence (looked up)

T3: recombinant human CD73 protein (human, UniProt P21589 27-549, limits assumed)
T3 sequence (looked up): T1 sequence (looked up)

T4: mouse CD73 (mouse, UniProt Q61503 29-551, limits assumed)
T4 construct: also called murine CD73
T4 sequence (looked up): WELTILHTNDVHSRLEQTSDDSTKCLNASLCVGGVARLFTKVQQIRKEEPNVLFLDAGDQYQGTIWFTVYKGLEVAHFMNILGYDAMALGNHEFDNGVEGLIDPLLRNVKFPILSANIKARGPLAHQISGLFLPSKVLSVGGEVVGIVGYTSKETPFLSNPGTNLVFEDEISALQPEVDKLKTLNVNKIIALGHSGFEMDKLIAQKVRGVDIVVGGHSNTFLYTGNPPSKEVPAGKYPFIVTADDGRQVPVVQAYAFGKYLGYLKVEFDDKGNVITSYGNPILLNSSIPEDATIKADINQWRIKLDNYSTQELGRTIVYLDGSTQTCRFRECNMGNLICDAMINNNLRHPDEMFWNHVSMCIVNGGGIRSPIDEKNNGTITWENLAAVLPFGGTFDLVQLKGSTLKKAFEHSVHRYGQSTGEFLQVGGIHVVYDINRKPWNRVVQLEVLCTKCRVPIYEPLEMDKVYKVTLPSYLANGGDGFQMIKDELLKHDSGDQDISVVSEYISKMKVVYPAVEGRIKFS

T5: human CD73-His (human, UniProt P21589 27-549)
T5 construct: extracellular domain; The SPR analyte is only called 'human CD73-His' (non-covalent dimeric antigen); also called HuCD73 His tagged; HuCD73his20170303
T5 sequence: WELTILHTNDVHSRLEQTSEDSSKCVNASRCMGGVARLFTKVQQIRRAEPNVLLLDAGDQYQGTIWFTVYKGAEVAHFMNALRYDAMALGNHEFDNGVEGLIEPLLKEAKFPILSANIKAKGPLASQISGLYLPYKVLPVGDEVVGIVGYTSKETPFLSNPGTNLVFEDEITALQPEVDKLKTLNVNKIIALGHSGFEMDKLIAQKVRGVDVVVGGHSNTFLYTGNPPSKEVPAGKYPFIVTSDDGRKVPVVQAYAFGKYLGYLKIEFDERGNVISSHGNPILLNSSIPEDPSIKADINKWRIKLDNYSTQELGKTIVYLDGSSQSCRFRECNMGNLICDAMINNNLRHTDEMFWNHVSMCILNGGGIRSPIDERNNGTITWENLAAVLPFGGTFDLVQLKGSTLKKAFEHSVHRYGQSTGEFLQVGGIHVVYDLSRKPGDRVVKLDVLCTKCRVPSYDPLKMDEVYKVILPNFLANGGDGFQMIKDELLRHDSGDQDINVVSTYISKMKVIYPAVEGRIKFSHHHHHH

B1: C2 (antibody, human IgG1, kappa, L234A L235A, V domains shown)
VH: QVQLVQSGAEVKKPGDSVKVSCKASGYTFTTYWMHWVRQAPGQGLEWMGAIYPGLSDTTYSQKFKGKVTMTRDTSTSTVYMKLSSLRSEDTAVYYCARLLDYAMDYWGQGTLVTVSS
VL: DIQMTQSPSSLSASVGDRVTITCRASQDIRSYLNWHQQKPGKAPKLLIWYTSRLHSGVPSRFSGSGSGTDYTLTISSLEPEDFATYFCQQGETLPWTFGQGTKLEIKR
notes: Humanized monoclonal antibody; also called anti-CD73 antibody C2
B2: C1 (antibody, human IgG1, kappa, L234A L235A, V domains shown)
VH: B1 VH with L55F
VL: B1 VL
notes: Humanized monoclonal antibody; also called anti-CD73 antibody C1
B3: B2 (antibody, human IgG1, kappa, L234A L235A, V domains shown)
VH: EVQLVESGGGLVQPGGSLRLSCAASGLTFSSYVMSWVRQAPGKGLEWVSTISSGGVSTYYPDTVKGRFTISRDNSKNTLYLQMNSLRAEDTAVYYCAKRETARATGFAYWGQGTLVTVSA
VL: DIQMTQSPSSLSASVGDRVTITCKASQSVSDDVTWYQQKPGKAPKLLIYYASNRYTGVPSRFSGSGSGTDFTFTISSVQPEDIATYYCQQDYSSPWTFGGGTKLEIKR
notes: Humanized monoclonal antibody; also called anti-CD73 antibody B2

Legend:
cell-bound CD73 [1] = biological target: T1, cell-bound CD73; test: cell-based or functional assay
non-cell-bound CD73 = biological target: T2, non-cell-bound CD73; test: cell-based or functional assay
cell-bound CD73 [2] = biological target: T1, cell-bound CD73; test: cell-based or functional assay; remark: listed apart in the source
[3] = biological target: T3, recombinant human CD73 protein; test: cell-based or functional assay
mouse CD73 = biological target: T4, mouse CD73; test: SPR, mouse CD73 compared with human CD73 (reference)
cell-bound CD73 [4] = biological target: T1, cell-bound CD73; test: cell-based or functional assay; remark: listed apart in the source
cell-bound CD73 [5] = biological target: T1, cell-bound CD73; test: cell-based or functional assay; remark: listed apart in the source
cell-bound CD73 [6] = biological target: T1, cell-bound CD73; test: cell-based or functional assay; remark: listed apart in the source
human CD73-His = biological target: T5, human CD73-His; test: SPR (ProteOn XPR36), antibody captured on Protein A/G, dimeric human CD73-His as analyte, avidity format, 1:1 Langmuir fit
Description: For the avidity format, the experiment was performed on a Bio-Rad ProteOn XPR36 instrument. Antibodies were captured via Protein A/G and the non-covalent dimeric antigens were flowed over the captured surface. The running buffer for this experiment and all dilutions were prepared in PBS-T-EDTA. The GLM sensor chip was normalized and pre-conditioned as per the manufacturer's recommendations. The sensor chip was activated with an equal mixture of EDC/s-NHS in the horizontal direction for 300 s at a flow rate of 30 μL/min and immobilized with recombinant Protein A/G (50 μg/ml in 10 mM acetate pH 4.5) in the horizontal direction for 300 s at a flow rate of 30 μL/min resulting in about 5000 RU of Protein A/G on the surface. The sensor chip was deactivated with 1M ethanolamine-HCl in the horizontal direction for 300 s at a flow rate of 30 μL/min. The sensor chip was regenerated with 18 s of 0.85% phosphoric acid at a flow rate of 100 μL/min 2 times horizontally and 2 times vertically.
About 300 RU of antibody was captured on the Protein A/G surface vertically for 60 s at a flow rate of 30 μL/min. The capture surface was stabilized by injecting PBS-T-EDTA for 60 s at a flowrate of 100 μL/min horizontally. The analyte (human CD73-His) was injected horizontally over the captured antibody for 600 s at a flow rate of 30 μL/min with a dissociation of 1200 s. The concentrations of human CD73-His were 0 nM, 3.125 nM, 6.25 nM, 12.5 nM, 25 nM and 50 nM. The surface was regenerated by injecting 0.85% phosphoric acid for 18 s at a flow rate of 100 μL/min one time horizontally and one time vertically.
The interspot (interactions with sensor surface) and blank (PBS-T-EDTA or 0 nM analyte) were subtracted from the raw data.

cell-bound CD73 [7] = biological target: T1, cell-bound CD73; test: cell-based or functional assay; remark: listed apart in the source

| Molecule | % of max. adenosine inhibition, washed Colo-201 cells (cell-bound CD73 [1]) | CD8 T cell proliferation [% of control], Donor A, 1 nM antibody (cell-bound CD73 [1]) | CD8 T cell proliferation [% of control], Donor B, 1 nM antibody (cell-bound CD73 [1]) | CD8 T cell proliferation [% of control], Donor C, 1 nM antibody (cell-bound CD73 [1]) | CD8 T cell proliferation [% of control], Donor D, 1 nM antibody (cell-bound CD73 [1]) | CD8 T cell proliferation [% of control], Donor E, 1 nM antibody (cell-bound CD73 [1]) | CD8 T cell proliferation [% of control], Donor F, 1 nM antibody (cell-bound CD73 [1]) | CD73 surface reduction [%] on Colo201 cells, 24 h, flow cytometry (cell-bound CD73 [1]) | IFNγ release [fold change over control], Donor A, 1 nM antibody (cell-bound CD73 [1]) | IFNγ release [fold change over control], Donor B, 1 nM antibody (cell-bound CD73 [1]) | % of max. adenosine inhibition, Colo-201 culture supernatant (non-cell-bound CD73) | Max. adenosine inhibition [%] in Colo201 cells (cell-bound CD73 [2]) | IC90 of inhibition of CD73 enzymatic function (luciferase-based assay) [3] | CD8 T cell proliferation [% of control], Donor A, 1 nM antibody (cell-bound CD73 [4]) | CD8 T cell proliferation [% of control], Donor B, 1 nM antibody (cell-bound CD73 [4]) | % of max. adenosine inhibition, washed Colo-201 cells (cell-bound CD73 [5]) | CD73 surface reduction [%] on Colo201 cells, 24 h, flow cytometry (cell-bound CD73 [6]) | Kd (human CD73-His) | IFNγ release [fold change over control], Donor A, 1 nM antibody (cell-bound CD73 [7]) | IFNγ release [fold change over control], Donor B, 1 nM antibody (cell-bound CD73 [7]) | also measured |
| --- | --- | --- | --- | --- | --- | --- | --- | --- | --- | --- | --- | --- | --- | --- | --- | --- | --- | --- | --- | --- | --- |
| "MEDI9447" (antibody) | 62% | 43.9% | 46.7% | 115% | 98% | 85.5% | -34.1% | 17% | 7.7 fold | 5.3 fold | 56% | – | – | – | – | – | – | – | – | – | IFNγ release [fold change over control], Donor C, 1 nM antibody (cell-bound CD73 [1]): 16.2 fold; IFNγ release [fold change over control], Donor D, 1 nM antibody (cell-bound CD73 [1]): 20.7 fold; IFNγ release [fold change over control], Donor E, 1 nM antibody (cell-bound CD73 [1]): 5 fold; IFNγ release [fold change over control], Donor F, 1 nM antibody (cell-bound CD73 [1]): 1.1 fold; Max. adenosine inhibition [%] in Colo201 cells (cell-bound CD73 [1]): 63% |
| "BMS986179" (antibody) | 84% | 40.7% | 61.7% | 99.6% | 98.7% | 95.4% | 22.5% | 58% | 10.9 fold | 5.2 fold | 63% | – | – | – | – | – | – | – | – | – | IFNγ release [fold change over control], Donor C, 1 nM antibody (cell-bound CD73 [1]): 36.4 fold; IFNγ release [fold change over control], Donor D, 1 nM antibody (cell-bound CD73 [1]): 13.3 fold; IFNγ release [fold change over control], Donor E, 1 nM antibody (cell-bound CD73 [1]): 7.2 fold; IFNγ release [fold change over control], Donor F, 1 nM antibody (cell-bound CD73 [1]): 2.9 fold; Max. adenosine inhibition [%] in Colo201 cells (cell-bound CD73 [1]): 68% |
| B1 | – | – | – | – | – | – | – | – | – | – | 77% | 88% | 0.49 nM | 103% | 68.5% | 78% | 15% | 0.063 nM | 20.3 fold | 7.8 fold | fold higher binding to human CD73 than to mouse CD73 (mouse CD73): 138 fold |
| B2 | – | – | – | – | – | – | – | – | – | – | 76% | 86% | 0.49 nM | 104% | 86.7% | 79% | 20% | 0.072 nM | 20.9 fold | 12 fold | fold higher binding to human CD73 than to mouse CD73 (mouse CD73): 96 fold; CD8 T cell proliferation [% of control], Donor C, 1 nM antibody (cell-bound CD73 [4]): 107%; CD8 T cell proliferation [% of control], Donor D, 1 nM antibody (cell-bound CD73 [4]): 99.5%; CD8 T cell proliferation [% of control], Donor E, 1 nM antibody (cell-bound CD73 [4]): 101%; CD8 T cell proliferation [% of control], Donor F, 1 nM antibody (cell-bound CD73 [4]): 84.2%; IFNγ release [fold change over control], Donor C, 1 nM antibody (cell-bound CD73 [7]): 51.3 fold; IFNγ release [fold change over control], Donor D, 1 nM antibody (cell-bound CD73 [7]): 20.9 fold; IFNγ release [fold change over control], Donor E, 1 nM antibody (cell-bound CD73 [7]): 12.8 fold; IFNγ release [fold change over control], Donor F, 1 nM antibody (cell-bound CD73 [7]): 6.7 fold |
| B3 | – | – | – | – | – | – | – | – | – | – | 62% | 77% | 1.04 nM | 55.6% | 62.2% | 70% | 31% | 0.42 nM | 12.6 fold | 8.1 fold | CD8 T cell proliferation [% of control], Donor C, 1 nM antibody (cell-bound CD73 [4]): 95.8%; CD8 T cell proliferation [% of control], Donor D, 1 nM antibody (cell-bound CD73 [4]): 98.5%; CD8 T cell proliferation [% of control], Donor E, 1 nM antibody (cell-bound CD73 [4]): 99.1%; CD8 T cell proliferation [% of control], Donor F, 1 nM antibody (cell-bound CD73 [4]): -8.9%; IFNγ release [fold change over control], Donor C, 1 nM antibody (cell-bound CD73 [7]): 34.1 fold; IFNγ release [fold change over control], Donor D, 1 nM antibody (cell-bound CD73 [7]): 17.7 fold; IFNγ release [fold change over control], Donor E, 1 nM antibody (cell-bound CD73 [7]): 11.1 fold; IFNγ release [fold change over control], Donor F, 1 nM antibody (cell-bound CD73 [7]): 3.1 fold |
